From doi:10.1101/2020.08.06.234674
Where “and” joins values, the source holds several entries; their conditions need not be identical. Equal values may be shown once.

Experiments:
[1] = target: SARS-CoV-2-3Q-2P full-length spike (SARS-CoV-2) (UniProt P0DTC2); assay: cryo-EM structure
[2] = target: SARS-CoV-2-3Q-2P full-length spike (SARS-CoV-2) (UniProt P0DTC2); assay: cryo-EM structure; remark: listed apart in the source
[3] = target: SARS-CoV-2-3Q-2P full-length spike (SARS-CoV-2) (UniProt P0DTC2); assay: negative stain electron microscopy
[4] = target: SARS-CoV-2-3Q-FL spike (without 2P) (SARS-CoV-2) (UniProt P0DTC2); assay: cryo-EM structure

## SARS-CoV-2-3Q-2P full-length spike (from UniProt P0DTC2 14-1273) (natural protein)
[1]
  stoichiometry N: 3 and 6
[2]
  stoichiometry N: 9
[3]
  stoichiometry N: 3

## SARS-CoV-2-3Q-FL spike (without 2P) (from UniProt P0DTC2 14-1273) (natural protein)
[4]
  stoichiometry N: 3
